According to patent publication US12187785B2, “Recombinant protein and fragments thereof, method for producing said recombinant protein, synthetic gene and use of sculptin or recombinant protein for preparing a medicament or pharmaceutical composition for the prophylaxis and/or treatment of thromboembolic diseases or as a direct and specific …” (priority 2017, dated 2025):

Assays:
thrombin [1] = target: T1, thrombin (Homo sapiens, UniProt P00734); assay: Degradation of recombinant protein by thrombin (SDS-PAGE and residual thrombin inhibition); assay type: in vitro ADME; set-up: Brown and cyan colors represent heavy and light chain of thrombin respectively
Procedure: Recombinant protein (10 μM) was incubated with or without serine protease 1 μM (thrombin, plasmin, trypsin or factor Xa) in phosphate buffer 50 mM containing NaCl 150 mM and 0.1% of PEG 6000, pH 7.4 for 4, 6, 7 or 18 h at 37° C. Reaction mixtures (20 μl) were split by SDS-PAGE. (A) hydrolysis SDS-PAGE (15%) of recombinant protein by serine proteases following 6 h of incubation. (B) Percentage of thrombin inhibition by recombinant protein following 6 h of incubation with serine protease (see experimental procedures). (C) hydrolysis SDS-PAGE (15%) of recombinant protein by serine proteases following 18 h of incubation. (D) Percentage of thrombin inhibition by recombinant protein following 18 h of incubation with serine protease (see experimental procedures). Numbering of (B) and (D) corresponds to numbering of (A) and (C), respectively, and recombinant protein control is represented by CTRL. Recombinant protein (strip 1); thrombin (strip 2) and thrombin with recombinant protein (strip 3); plasmin (strip 4) and plasmin with recombinant protein (strip 5); trypsin (strip 6) and trypsin with recombinant protein (strip 7); factor Xa (strip 8) and factor Xa with recombinant protein (strip 9) and protein marker (strip 10; in A). (E) Identification of cleavage sites of thrombin in recombinant protein following 7 h of incubation. (F) Identification of cleavage sites of factor Xa in recombinant protein following 4 h of incubation. Cleavage sites of thrombin and factor Xa in recombinant protein sequence are shown in FIGS. S1 and S2, respectively. Experimental procedure for (C), (D), (E) and (F) was the same as for (A) and (B), except the incubation time and the type of serine protease used. FIG. 5 discloses “GKPQG” as SEQ ID NO: 18, “MPKGG” as SEQ ID NO: 19, and “SDAVH” as SEQ ID NO: 20.
Afterwards, it was determined whether serine proteases, like thrombin, plasmin, factor Xa and trypsin, hydrolyze recombinant protein. […] Upon addition of chromogenic substrate S-2238, the hydrolysis thereof by thrombin was monitored in spectrophotometer way. […]

factor Xa = target: T2, factor Xa (Homo sapiens, UniProt P00742); assay: Serine protease inhibition test, factor Xa (chromogenic substrate); assay type: biochemical; details: recombinant protein 1, 100, 200 nM; protease 100 pM; 6 h at 37° C.
T2 construct: Serine protease (100 pM; thrombin, plasmin, trypsin or factor Xa) was incubated with recombinant protein; For factor Xa activity, buffer contained phosphatidylserine and phosphatidylcholine 50 μM
Procedure: (A) Inhibition of serine proteases through recombinant protein. Serine protease (100 pM; thrombin, plasmin, trypsin or factor Xa) was incubated with recombinant protein (1, 100 and 200 nM) in phosphate buffer 50 mM containing NaCl 150 mM and 0.1% of PEG 6000, pH 7.4 for 6 h at 37° C. Following addition of chromogenic substrate corresponding to reaction mixture, hydrolysis thereof was monitored at 405 nm. For factor Xa activity, buffer contained phosphatidylserine and phosphatidylcholine 50 μM. […] (B) Typical curves for hydrolysis of chromogenic substrate S-2238 (15 μM) by thrombin 0.1 nM in absence (trace a) or presence of recombinant protein (trace b, 15 pM; trace c, 30 pM; trace d, 60 pM and trace e, 100 pM) in phosphate buffer 50 mM containing NaCl 150 mM and 0.1% of PEG 6000, pH 7.4 at 37° C. (C) Residual activity of thrombin in presence of increasing concentration of recombinant protein. (D) Dose-response curves for thrombin inhibition by recombinant protein. Percentage of thrombin inhibition was plotted versus the concentration record of recombinant protein. Experimental condition of (C) and (D) is the same as in (B).
The first performed experiment was the test of serine proteases inhibition through recombinant protein. […] Hydrolysis of a chromogenic substrate through serine proteases in the presence and absence of recombinant protein was monitored in a spectrophotometer way. […]

thrombin [2] = target: T1, thrombin; assay: Thrombin inhibition, hydrolysis of chromogenic substrate S-2238; assay type: biochemical; set-up: Brown and cyan colors represent heavy and light chain of thrombin respectively
[3] = from plot of Kobs versus recombinant protein concentration

T2 sequence (P00742 235-488 limits assumed): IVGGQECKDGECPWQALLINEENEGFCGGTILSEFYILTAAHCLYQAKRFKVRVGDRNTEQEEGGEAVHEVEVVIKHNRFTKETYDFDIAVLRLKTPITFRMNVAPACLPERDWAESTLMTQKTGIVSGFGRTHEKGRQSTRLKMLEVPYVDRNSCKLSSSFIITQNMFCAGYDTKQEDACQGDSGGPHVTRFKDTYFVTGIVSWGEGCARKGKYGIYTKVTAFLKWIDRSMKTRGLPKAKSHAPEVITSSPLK
T2 sequence (P00742 41-179 limits assumed): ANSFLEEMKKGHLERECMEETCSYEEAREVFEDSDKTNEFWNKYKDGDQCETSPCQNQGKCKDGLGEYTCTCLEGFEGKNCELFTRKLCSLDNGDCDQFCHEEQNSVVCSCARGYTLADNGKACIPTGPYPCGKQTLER

B1: GKPQGHPHDALEARSDAVHTAVPKMPKGGHGGFEPIPIDYDERALEARSDAVHTAVPKMPKGGLGGFEPIPIDYDERALEARSDAVHTAVPKMPKGGHGGFEPIPIDYDERALEARSDAVHTAVPKMPKGGHGGFEPIPIDYDERALHALEHHHHHH (protein)
chain: GKPQGHPHDALEARSDAVHTAVPKMPKGGHGGFEPIPIDYDERALEARSDAVHTAVPKMPKGGLGGFEPIPIDYDERALEARSDAVHTAVPKMPKGGHGGFEPIPIDYDERALEARSDAVHTAVPKMPKGGHGGFEPIPIDYDERALHALEHHHHHH
modifications: Sculptin recombinat protein
notes: recombinant His-tagged protein modified from tick sculptin, expressed in E. coli
B1 was tested, and the “SDS-PAGE strip intensity of 20-kDa (non-digested recombinant protein)” value (thrombin [1]; 10 μM protein with 1 μM thrombin, 6 h at 37° C.) was “decreased”, the “SDS-PAGE strip of 20-kDa (recombinant protein monomer)” value (thrombin [1]; 10 μM protein with 1 μM thrombin, 18 h at 37° C.) was “completely disappeared” and the “thrombin inhibition after incubation” value (thrombin [1]; after 18 h incubation with thrombin, diluted to 100 pM) was “did not inhibit thrombin”. For the same molecule, the “inhibition of factor Xa” value (factor Xa) was “did not inhibit”, the Koff (thrombin [2]; [3]) was 0.65±0.04×10^−3 s^−1 and the Kon (thrombin [2]; [3]) was 4.04±0.03×10^7 M^−1 s^−1. The “decrease of residual activity of thrombin” value (thrombin [2]; recombinant protein 1 nM, thrombin 100 pM, 6 h at 37° C., pH 7.4) was “about 97%” and the “Inhibition Type” value (thrombin [2]; this study) was “Competing”.
